Test results published in EP4778941A1 (Jiangsu Hengrui Pharmaceuticals Co., Ltd., dated 2025).

B1: Antibody A13 N30Q (antibody, human IgG1, kappa, V domains shown)
VH: QVQLVQSGAEVKKPGASVKVSCEASGYTFTSYGFSWVRQAPGQGLEWMGWISASNGNTYYAQKLQGRVTMTTDTSTSSAYMELRSLRSDDTAVYYCARVYADYADYWGQGTLVTVSS
VL: DIQMTQSPSSVSASVGDRVTITCRASQGIQTWLAWYQQKPGKAPKLLIYAASSLKSGVPSRFSGSGSGADFTLTISSLQPEDFATYYCQQANSFPLTFGGGTKVEIKR
notes: Differs from antibody A13 only by N to Q at position 30 of VL
B2: Antibody A13 T31V (antibody, human IgG1, kappa, V domains shown)
VH: QVQLVQSGAEVKKPGASVKVSCEASGYTFTSYGFSWVRQAPGQGLEWMGWISASNGNTYYAQKLQGRVTMTTDTSTSSAYMELRSLRSDDTAVYYCARVYADYADYWGQGTLVTVSS
VL: DIQMTQSPSSVSASVGDRVTITCRASQGINVWLAWYQQKPGKAPKLLIYAASSLKSGVPSRFSGSGSGADFTLTISSLQPEDFATYYCQQANSFPLTFGGGTKVEIKR
notes: Differs from antibody A13 only by T to V at position 31 of VL
B3: Antibody A13 N30T (antibody, human IgG1, kappa, V domains shown)
VH: QVQLVQSGAEVKKPGASVKVSCEASGYTFTSYGFSWVRQAPGQGLEWMGWISASNGNTYYAQKLQGRVTMTTDTSTSSAYMELRSLRSDDTAVYYCARVYADYADYWGQGTLVTVSS
VL: DIQMTQSPSSVSASVGDRVTITCRASQGITTWLAWYQQKPGKAPKLLIYAASSLKSGVPSRFSGSGSGADFTLTISSLQPEDFATYYCQQANSFPLTFGGGTKVEIKR
notes: Differs from antibody A13 only by N to T at position 30 of VL
B4: Antibody A13 N30S (antibody, human IgG1, kappa, V domains shown)
VH: QVQLVQSGAEVKKPGASVKVSCEASGYTFTSYGFSWVRQAPGQGLEWMGWISASNGNTYYAQKLQGRVTMTTDTSTSSAYMELRSLRSDDTAVYYCARVYADYADYWGQGTLVTVSS
VL: DIQMTQSPSSVSASVGDRVTITCRASQGISTWLAWYQQKPGKAPKLLIYAASSLKSGVPSRFSGSGSGADFTLTISSLQPEDFATYYCQQANSFPLTFGGGTKVEIKR
notes: Differs from antibody A13 only by N to S at position 30 of VL
B5: Anti-HER3/MET bispecific antibody 2232-02 (S3-A) (bispecific antibody, human IgG1, kappa)
heavy 1: not shown
light 1: DIVLTQSPDSLAVSLGERATINCRADKSVSTSTYNYLHWYQQKPGQPPKLLIYLASNLASGVPDRFSGSGSGTDFTLTISSLQAEDVAVYYCQHSRDLPPTFGQGTKLEIKGGGGSGIPPKIECLPIDISIDEGKVLTVASAFTGEPTPEVTWSTGGRKIHSQEQGRFHIENTDDSTTLTIKDVQKQDGGLYTLTLRNEFGSDSATVNIHIRSI
heavy 2: QVQLVQSGGGLVQPGRSLRLSCAASGFTFDDYAMHWVRQAPGKGLEWVSGISWNSGSIGYADSVKGRFTISRDNAKNSLYLQMNSLRAEDTALYYCAKEGLPGLDYWGQGTLVTVSSASTKGPSVFPLAPSSKSTSGGTAALGCLVKDYFPEPVTVSWNSGALTSGVHTFPAVLQSSGLYSLSSVVTVPSSSLGTQTYICNVNHKPSNTKVDKKVEPKSCDKTHTCPPCPAPELLGGPSVFLFPPKPKDTLMISRTPEVTCVVVDVSHEDPEVKFNWYVDGVEVHNAKTKPREEQYNSTYRVVSVLTVLHQDWLNGKEYKCKVSNKALPAPIEKTISKAKGQPREPQVCTLPPSREEMTKNQVSLSCAVKGFYPSDIAVEWESNGQPENNYKTTPPVLDSDGSFFLVSKLTVDKSRWQQGNVFSCSVMHEALHNHYTQKSLSLSPGK
light 2: DIQMTQSPSSLSASIGDRATITCRASQHVGTYLNWYQQKPGKTPKLLISGAANLQSGVPSRFSGSGSGTDFTLTISSLQPEDFATYYCQQSYNTPPFSFGQGTKVEIKRTVAAPSVFIFPPSDEQLKSGTASVVCLLNNFYPREAKVQWKVDNALQSGNSQESVTEQDSKDSTYSLSSTLTLSKADYEKHKVYACEVTHQGLSSPVTKSFNRGEC
B6: Anti-HER3/MET bispecific antibody P8-A (bispecific antibody, human IgG1, kappa)
heavy 1: not shown
light 1: NFMLTQPHSVSESPGKTVTISCTRSSGSIAFDYVQWYQQRPGSAPTTVIYEDNQRPSGVPDRFSASIDSSSNSASLTISALKTEDEADYYCQSYDNSNSWVFGGGTKLTVLGGGGSGIPPKIECLPIDISIDEGKVLTVASAFTGEPTPEVTWSTGGRKIHSQEQGRFHIENTDDSTTLTIKDVQKQDGGLYTLTLRNEFGSDSATVNIHIRSI
heavy 2: QVQLVQSGGGLVQPGRSLRLSCAASGFTFDDYAMHWVRQAPGKGLEWVSGISWNSGSIGYADSVKGRFTISRDNAKNSLYLQMNSLRAEDTALYYCAKEGLPGLDYWGQGTLVTVSSASTKGPSVFPLAPSSKSTSGGTAALGCLVKDYFPEPVTVSWNSGALTSGVHTFPAVLQSSGLYSLSSVVTVPSSSLGTQTYICNVNHKPSNTKVDKKVEPKSCDKTHTCPPCPAPELLGGPSVFLFPPKPKDTLMISRTPEVTCVVVDVSHEDPEVKFNWYVDGVEVHNAKTKPREEQYNSTYRVVSVLTVLHQDWLNGKEYKCKVSNKALPAPIEKTISKAKGQPREPQVCTLPPSREEMTKNQVSLSCAVKGFYPSDIAVEWESNGQPENNYKTTPPVLDSDGSFFLVSKLTVDKSRWQQGNVFSCSVMHEALHNHYTQKSLSLSPGK
light 2: DIQMTQSPSSLSASIGDRATITCRASQHVGTYLNWYQQKPGKTPKLLISGAANLQSGVPSRFSGSGSGTDFTLTISSLQPEDFATYYCQQSYNTPPFSFGQGTKVEIKRTVAAPSVFIFPPSDEQLKSGTASVVCLLNNFYPREAKVQWKVDNALQSGNSQESVTEQDSKDSTYSLSSTLTLSKADYEKHKVYACEVTHQGLSSPVTKSFNRGEC
B7: Antibody A N93Q (antibody, human IgG1, kappa, V domains shown)
VH: QVQLVQSGGGLVQPGRSLRLSCAASGFTFDDYAMHWVRQAPGKGLEWVSGISWNSGSIGYADSVKGRFTISRDNAKNSLYLQMNSLRAEDTALYYCAKEGLPGLDYWGQGTLVTVSS
VL: DIQMTQSPSSLSASIGDRATITCRASQHVGTYLNWYQQKPGKTPKLLISGAANLQSGVPSRFSGSGSGTDFTLTISSLQPEDFATYYCQQSYQTPPFSFGQGTKVEIKR
notes: Differs from antibody A only by N to Q at position 93 of VL
B8: Antibody A N93T (antibody, human IgG1, kappa, V domains shown)
VH: QVQLVQSGGGLVQPGRSLRLSCAASGFTFDDYAMHWVRQAPGKGLEWVSGISWNSGSIGYADSVKGRFTISRDNAKNSLYLQMNSLRAEDTALYYCAKEGLPGLDYWGQGTLVTVSS
VL: DIQMTQSPSSLSASIGDRATITCRASQHVGTYLNWYQQKPGKTPKLLISGAANLQSGVPSRFSGSGSGTDFTLTISSLQPEDFATYYCQQSYTTPPFSFGQGTKVEIKR
notes: Differs from antibody A only by N to T at position 93 of VL
B9: Antibody A N93S (antibody, human IgG1, kappa, V domains shown)
VH: QVQLVQSGGGLVQPGRSLRLSCAASGFTFDDYAMHWVRQAPGKGLEWVSGISWNSGSIGYADSVKGRFTISRDNAKNSLYLQMNSLRAEDTALYYCAKEGLPGLDYWGQGTLVTVSS
VL: DIQMTQSPSSLSASIGDRATITCRASQHVGTYLNWYQQKPGKTPKLLISGAANLQSGVPSRFSGSGSGTDFTLTISSLQPEDFATYYCQQSYSTPPFSFGQGTKVEIKR
notes: Differs from antibody A only by N to S at position 93 of VL
B10: Antibody A T94V (antibody, human IgG1, kappa, V domains shown)
VH: QVQLVQSGGGLVQPGRSLRLSCAASGFTFDDYAMHWVRQAPGKGLEWVSGISWNSGSIGYADSVKGRFTISRDNAKNSLYLQMNSLRAEDTALYYCAKEGLPGLDYWGQGTLVTVSS
VL: DIQMTQSPSSLSASIGDRATITCRASQHVGTYLNWYQQKPGKTPKLLISGAANLQSGVPSRFSGSGSGTDFTLTISSLQPEDFATYYCQQSYNVPPFSFGQGTKVEIKR
notes: Differs from antibody A only by T to V at position 94 of VL

Columns and labels:
[1] = biological target: T1, His-tagged human MET antigen (human, UniProt P08581 25-932); test: SPR, Biacore 8K; antibody captured, His-tagged human MET antigen 6.25-400 nM as analyte; 1:1 Langmuir
T1 construct: Soluble antigen used as analyte in SPR; not shown: His tag
T1 sequence (P08581 25-932 limits assumed): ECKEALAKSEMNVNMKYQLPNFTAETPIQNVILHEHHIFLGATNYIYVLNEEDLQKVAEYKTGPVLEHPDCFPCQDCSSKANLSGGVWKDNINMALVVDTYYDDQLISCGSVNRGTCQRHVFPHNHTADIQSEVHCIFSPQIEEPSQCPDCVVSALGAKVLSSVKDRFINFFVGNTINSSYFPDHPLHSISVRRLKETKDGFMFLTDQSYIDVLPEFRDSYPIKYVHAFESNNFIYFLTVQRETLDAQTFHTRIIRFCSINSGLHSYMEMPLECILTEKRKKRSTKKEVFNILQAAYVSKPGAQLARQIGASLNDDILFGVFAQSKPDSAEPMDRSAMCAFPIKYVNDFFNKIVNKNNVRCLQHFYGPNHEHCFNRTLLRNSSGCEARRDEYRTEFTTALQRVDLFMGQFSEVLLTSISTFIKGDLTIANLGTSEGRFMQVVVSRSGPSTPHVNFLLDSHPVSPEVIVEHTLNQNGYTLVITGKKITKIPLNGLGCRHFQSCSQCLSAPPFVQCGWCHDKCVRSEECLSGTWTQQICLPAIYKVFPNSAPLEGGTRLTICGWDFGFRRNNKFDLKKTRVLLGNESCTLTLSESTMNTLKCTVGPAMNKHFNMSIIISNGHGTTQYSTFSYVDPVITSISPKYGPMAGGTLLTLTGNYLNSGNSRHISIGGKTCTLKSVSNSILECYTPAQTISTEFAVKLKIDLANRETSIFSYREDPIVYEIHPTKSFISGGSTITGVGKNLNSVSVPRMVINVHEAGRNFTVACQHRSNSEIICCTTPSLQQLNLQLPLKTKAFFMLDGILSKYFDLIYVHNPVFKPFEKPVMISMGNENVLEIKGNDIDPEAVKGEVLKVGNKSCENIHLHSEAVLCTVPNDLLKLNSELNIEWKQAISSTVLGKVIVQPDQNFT

[2] = biological target: T2, Human HER3 protein on the cell surface (human, UniProt P21860 20-1342); test: FACS on MDA-MB-453 cells (HER3 single-positive)
T2 construct: whole, on cells; also called HER3 single-positive cells (MDA-MB-453)

[3] = biological target: T2, Human HER3 protein on the cell surface; test: cell-based or functional assay
[4] = biological target: Human HER3 and MET proteins together on HER3/MET double-positive cells (human, UniProt P21860 20-1342; P08581 25-1390); test: cell-based or functional assay
[5] = biological target: T3, His-tagged human HER3 antigen (human, UniProt P21860 20-643); test: SPR, Biacore 8K; antibody captured, His-tagged human HER3 antigen 6.25-400 nM as analyte; 1:1 Langmuir
T3 construct: Soluble antigen used as analyte in SPR; not shown: His tag

Row | Binder | Kd [1] [nM] | koff [1] [s⁻¹] | kon [1] [M⁻¹ s⁻¹] | Kd [5] [nM] | koff [5] [s⁻¹] | kon [5] [M⁻¹ s⁻¹] | also measured
1 | B1 | 17.6 | 0.00146 | 83000 | – | – | – | –
2 | B2 | 93.1 | 0.00521 | 56000 | – | – | – | –
3 | B3 | 17 | 0.0018 | 106000 | – | – | – | –
4 | B4 | 7.69 | 0.000776 | 101000 | – | – | – | –
5 | B5 | – | – | – | – | – | – | EC50 [2]: 2.64 nM; Maximum fluorescence value [2]: 1870; Minimum cell viability (%) [3]: 25.8%
6 | B6 | – | – | – | – | – | – | Minimum cell viability (%) [4]: 12.1%
7 | B7 | – | – | – | 51.4 | 0.0295 | 573000 | –
8 | B8 | – | – | – | 97.9 | 0.0329 | 336000 | –
9 | B9 | – | – | – | 32.6 | 0.0215 | 659000 | –
10 | B10 | – | – | – | 15 | 0.0108 | 717000 | –
